Measured values: paper PMC5879082, “PutA Is Required for Virulence and Regulated by PruR in Pseudomonas aeruginosa”

B1: putA promoter F6 (dsDNA)
DNA 1: TTCCGCAGCCAGGAGTTTTCCGCAAAAACTCCAGAGTCTTTCGCAAGAATCGC
DNA 2: GCGATTCTTGCGAAAGACTCTGGAGTTTTTGCGGAAAACTCCTGGCTGCGGAA

Tests used:
[1] = target: T1, rPruR (AraC/XylS family regulator) (Pseudomonas aeruginosa PAK) (UniProt Q9I5F8); test: EMSA; details: 50 mM Tris pH 7.9, 50 mM NaCl, 0.5 mM EDTA, 10% glycerol, 1% NP-40, 25 C, 10 min; 50 ng DNA, 2 ug rPruR in 20 ul; 8% native PAGE in TBE on ice (EMSA) …
T1 sequence: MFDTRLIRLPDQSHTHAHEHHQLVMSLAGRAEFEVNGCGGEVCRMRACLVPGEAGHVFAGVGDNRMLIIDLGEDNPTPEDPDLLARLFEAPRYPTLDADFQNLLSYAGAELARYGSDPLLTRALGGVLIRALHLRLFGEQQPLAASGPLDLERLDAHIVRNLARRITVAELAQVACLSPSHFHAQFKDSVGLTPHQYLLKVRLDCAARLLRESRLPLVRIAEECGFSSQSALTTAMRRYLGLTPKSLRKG

[2] = target: T2, rPruR (AraC/XylS family regulator) (Pseudomonas aeruginosa PAK, UniProt Q9I5F8 1-250); test: EMSA; 50 mM Tris pH 7.9, 50 mM NaCl, 0.5 mM EDTA, 10% glycerol, 1% NP-40, 25 C, 10 min; 50 ng DNA, 2 ug rPruR in 20 ul; 8% native PAGE in TBE on ice (EMSA); footprint 300 ng probe, 0.09 U DNase I, 25 C 5 min; details: protein: recombinant; tags: His tag (pET-28a(+)); blunt
T2 sequence: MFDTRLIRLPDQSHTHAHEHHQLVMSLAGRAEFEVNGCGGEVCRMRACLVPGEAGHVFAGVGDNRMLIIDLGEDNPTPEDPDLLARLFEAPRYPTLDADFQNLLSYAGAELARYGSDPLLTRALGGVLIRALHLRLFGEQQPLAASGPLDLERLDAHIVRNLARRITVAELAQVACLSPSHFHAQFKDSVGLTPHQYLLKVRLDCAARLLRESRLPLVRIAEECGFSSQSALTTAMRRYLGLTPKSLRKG

Molecule | binding [1] | binding result [2]
CCCTCTCGCAGCCACTACATTCCGCTATCCGCTGGTGCCTCGCGCCGGCGGAATGGGCCTGACCCATACTGATCCGTATTCCCGCGCCACAGGACGTGCCGCGCCGCCGGCACAACCCGCCGGCGGCGGTGCCCCGGGCAATGGACGCCTGGCCGGACTTCTTTCAATAACAATGGCTCCACAAGAGGAGGGCGTG (double strand) [putA promoter F3] | no binding | 
CTTTCCCGTTCCTCTTCGCCGGCAGGCATGCGGACATTGCCGCTGCACGTCGGCACGACGCCATGCAGAGTGGCTACGCGGGTCTACCGACACAAAAAGAAATAATATAACATCCCAATAAATACGCCGAT (double strand) [putA promoter F5] | no binding | 
B1 |  | binds
